Assay results from publication PMC12059646, “Functional Characterization of Luciferase in a Brittle Star Indicates Parallel Evolution Influenced by Genomic Availability of Haloalkane Dehalogenase” (Molecular Biology and Evolution, 2025).

B1: RLuc (Renilla reniformis) (protein)
chain: MTSKVYDPEQRKRMITGPQWWARCKQMNVLDSFINYYDSEKHAENAVIFLHGNAASSYLWRHVVPHIEPVARCIIPDLIGMGKSGKSGNGSYRLLDHYKYLTAWFELLNLPKKIIFVGHDWGACLAFHYSYEHQDKIKAIVHAESVVDVIESWDEWPDIEEDIALIKSEEGEKMVLENNFFVETMLPSKIMRKLEPEEFAAYLEPFKEKGEVRRPTLSWPREIPLVKGGKPDVVQIVRNYNAYLRASDDLPKMFIESDPGFFSNAIVEGAKKFPNTEFVKVKGLHFSQEDAPDEMGKYIKSFVERVLKNEQ
notes: codon-optimised synthetic gene in pET21b, E. coli BL21, Ni-NTA purified

Columns and labels:
[1] = system: T1, AfLuc; assay: luminescence steady-state kinetics, global numerical analysis; assay type: biochemical, Amphiura filiformis; settings: 25 nM protein
T1 construct: codon-optimised synthetic gene in pET21b, E. coli BL21, Ni-NTA purified

[2] = substrate: Oc1ccc(Cc2nc3c(Cc4ccccc4)nc(-c4ccc(O)cc4)cn3c2O)cc1; assay: as above; assay type: biochemical, Renilla reniformis; settings: 25 nM protein

Row | Molecule | Km [1] [µM] | Km [2] [µM] | kcat [2] [s⁻¹]
1 | Oc1ccc(Cc2nc3c(Cc4ccccc4)nc(-c4ccc(O)cc4)cn3c2O)cc1 [coelenterazine] | 1.21 ± 0.03 | – | –
2 | B1 | – | 0.91 ± 0.05 | 4.2 ± 0.2
